Reference: article PMC4415972

Key:
[1] = target: synaptic membrane proteins in SMPL Nanodiscs (immobilised on magnetic beads); test: ELISA; magnetic bead-based: SMPL Nanodiscs immobilised through the His tag of MSP on Dynabeads; PBS with 0.1% BSA and 25 mM imidazole; AβOs 1 h at 37°C; bound AβOs detected by NU2 antibody or through biotin (Vectastain) with colorimetric HRP substrate; nonspecific binding measured with excess ATA; Kd as Aβ monomer equivalent
[2] = target: binding sites on cultured rat hippocampal neurons; test: immunostaining of cells or tissue; cultured rat hippocampal neurons; biotinylated STI 30 min at 37°C, then 100 nM AβOs 30 min at 37°C; AβOs detected with NU2, STI with a streptavidin conjugate; in the PIPLC experiment 100 nM fluorescent AβOs were seen directly after 1 h of 0.2 units/mL PIPLC

increase in assay response relative to unfractionated AβOs [1] | percent reduction of AβO binding [2] | Substance
80% | – | biotin-labeled high MW AβOs (larger than 50 kDa) (from UniProt P05067 672-713; P05067 672-713) (peptide)
– | 87% | biotinylated soybean trypsin inhibitor type II (from UniProt P01070 25-205) (natural protein)
